Reference: publication PMC6318328 (2019)
Substitutions are numbered along the chain they refer to. Where no end group is shown, it is not given here. [ ]: non-standard residue; d: D form. Lys(Me3) = C[N+](C)(C)CCCC[C@H](N)C(=O)O; Arg(Me) = CNC(=N)NCCC[C@H](N)C(=O)O

T1: MLL4_(ePHD6)_(1475–1564) (human, UniProt O14686 1475-1564)
T1 chain: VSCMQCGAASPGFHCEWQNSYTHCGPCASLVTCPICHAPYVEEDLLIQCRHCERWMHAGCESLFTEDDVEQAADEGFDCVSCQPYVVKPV

T2: MLL3_(ePHD6)_(1055–1144) (human, UniProt Q8NEZ4 1055-1144)
T2 chain: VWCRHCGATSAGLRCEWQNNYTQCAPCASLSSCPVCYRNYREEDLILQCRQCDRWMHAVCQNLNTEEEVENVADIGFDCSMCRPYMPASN

T3: MLL3 ePHD6 I1100L (human, UniProt Q8NEZ4 1055-1144, I1100 of MLL3 to leucine)
T3 sequence: T2 chain with I46L

T4: MLL3 ePHD6 E1097A (human, UniProt Q8NEZ4 1055-1144, E1097A)
T4 sequence: T2 chain with E43A


Columns and labels:
Test in all cases: ITC
[1] = molecular target: T1, MLL4_(ePHD6)_(1475–1564)
[2] = molecular target: T2, MLL3_(ePHD6)_(1055–1144)
[3] = molecular target: T3, MLL3 ePHD6 I1100L
[4] = molecular target: T4, MLL3 ePHD6 E1097A

Kd [1] | Kd [2] | Kd [3] | Kd [4] | Binder
70 µM | 113 µM |  |  | GKGGAK[Arg(Me)]HRKV [histone H4 peptide monomethylated at R17]
14 µM |  | 34 µM |  | GKGGA[Lys(Me3)]RHRKV [H4K16me3 peptide]
 |  |  | 65 µM | GKGGAKRHRKV [histone H4 peptide H4_(11–21)]
